Experimental data reported in US20150023988A1.
Where “and” joins values, the source holds several entries; their conditions need not be identical. Identical values can stand only once. Like-named read-outs stand apart in the source and are kept apart here.

Legend:
[1] = target: human voltage-gated sodium channel Nav1.3 (human) (UniProt Q9NY46); assay: cell-based or functional assay
[2] = target: human voltage-gated sodium channel Nav1.4 (human) (UniProt P35499); assay: cell-based or functional assay
[3] = target: human voltage-gated sodium channel Nav1.5 (human) (UniProt Q14524); assay: cell-based or functional assay
[4] = target: human voltage-gated sodium channel Nav1.7 (human) (UniProt Q15858); assay: cell-based or functional assay
[5] = target: TTX-sensitive Nav channels in mouse DRG neuron; assay: cell-based or functional assay
[6] = target: human voltage-gated sodium channel Nav1.3 (human) (UniProt Q9NY46); assay: cell-based or functional assay; remark: listed apart in the source
[7] = target: human voltage-gated sodium channel Nav1.4 (human) (UniProt P35499); assay: cell-based or functional assay; remark: listed apart in the source
[8] = target: human voltage-gated sodium channel Nav1.5 (human) (UniProt Q14524); assay: cell-based or functional assay; remark: listed apart in the source
[9] = target: human voltage-gated sodium channel Nav1.7 (human) (UniProt Q15858); assay: cell-based or functional assay; remark: listed apart in the source
[10] = target: TTX-resistant Nav channels in mouse DRG neurons; assay: cell-based or functional assay
[11] = target: TTX-sensitive Nav channels in mouse DRG neurons; assay: cell-based or functional assay
[12] = target: human voltage-gated sodium channel Nav1.8 (human) (UniProt Q9Y5Y9); assay: cell-based or functional assay
[13] = target: human voltage-gated sodium channel Nav1.8 (human), Q9Y5Y9; conditions: chains peptide; modification not given

human voltage-gated sodium channel Nav1.3 (human), sequence (Q9NY46 whole entry): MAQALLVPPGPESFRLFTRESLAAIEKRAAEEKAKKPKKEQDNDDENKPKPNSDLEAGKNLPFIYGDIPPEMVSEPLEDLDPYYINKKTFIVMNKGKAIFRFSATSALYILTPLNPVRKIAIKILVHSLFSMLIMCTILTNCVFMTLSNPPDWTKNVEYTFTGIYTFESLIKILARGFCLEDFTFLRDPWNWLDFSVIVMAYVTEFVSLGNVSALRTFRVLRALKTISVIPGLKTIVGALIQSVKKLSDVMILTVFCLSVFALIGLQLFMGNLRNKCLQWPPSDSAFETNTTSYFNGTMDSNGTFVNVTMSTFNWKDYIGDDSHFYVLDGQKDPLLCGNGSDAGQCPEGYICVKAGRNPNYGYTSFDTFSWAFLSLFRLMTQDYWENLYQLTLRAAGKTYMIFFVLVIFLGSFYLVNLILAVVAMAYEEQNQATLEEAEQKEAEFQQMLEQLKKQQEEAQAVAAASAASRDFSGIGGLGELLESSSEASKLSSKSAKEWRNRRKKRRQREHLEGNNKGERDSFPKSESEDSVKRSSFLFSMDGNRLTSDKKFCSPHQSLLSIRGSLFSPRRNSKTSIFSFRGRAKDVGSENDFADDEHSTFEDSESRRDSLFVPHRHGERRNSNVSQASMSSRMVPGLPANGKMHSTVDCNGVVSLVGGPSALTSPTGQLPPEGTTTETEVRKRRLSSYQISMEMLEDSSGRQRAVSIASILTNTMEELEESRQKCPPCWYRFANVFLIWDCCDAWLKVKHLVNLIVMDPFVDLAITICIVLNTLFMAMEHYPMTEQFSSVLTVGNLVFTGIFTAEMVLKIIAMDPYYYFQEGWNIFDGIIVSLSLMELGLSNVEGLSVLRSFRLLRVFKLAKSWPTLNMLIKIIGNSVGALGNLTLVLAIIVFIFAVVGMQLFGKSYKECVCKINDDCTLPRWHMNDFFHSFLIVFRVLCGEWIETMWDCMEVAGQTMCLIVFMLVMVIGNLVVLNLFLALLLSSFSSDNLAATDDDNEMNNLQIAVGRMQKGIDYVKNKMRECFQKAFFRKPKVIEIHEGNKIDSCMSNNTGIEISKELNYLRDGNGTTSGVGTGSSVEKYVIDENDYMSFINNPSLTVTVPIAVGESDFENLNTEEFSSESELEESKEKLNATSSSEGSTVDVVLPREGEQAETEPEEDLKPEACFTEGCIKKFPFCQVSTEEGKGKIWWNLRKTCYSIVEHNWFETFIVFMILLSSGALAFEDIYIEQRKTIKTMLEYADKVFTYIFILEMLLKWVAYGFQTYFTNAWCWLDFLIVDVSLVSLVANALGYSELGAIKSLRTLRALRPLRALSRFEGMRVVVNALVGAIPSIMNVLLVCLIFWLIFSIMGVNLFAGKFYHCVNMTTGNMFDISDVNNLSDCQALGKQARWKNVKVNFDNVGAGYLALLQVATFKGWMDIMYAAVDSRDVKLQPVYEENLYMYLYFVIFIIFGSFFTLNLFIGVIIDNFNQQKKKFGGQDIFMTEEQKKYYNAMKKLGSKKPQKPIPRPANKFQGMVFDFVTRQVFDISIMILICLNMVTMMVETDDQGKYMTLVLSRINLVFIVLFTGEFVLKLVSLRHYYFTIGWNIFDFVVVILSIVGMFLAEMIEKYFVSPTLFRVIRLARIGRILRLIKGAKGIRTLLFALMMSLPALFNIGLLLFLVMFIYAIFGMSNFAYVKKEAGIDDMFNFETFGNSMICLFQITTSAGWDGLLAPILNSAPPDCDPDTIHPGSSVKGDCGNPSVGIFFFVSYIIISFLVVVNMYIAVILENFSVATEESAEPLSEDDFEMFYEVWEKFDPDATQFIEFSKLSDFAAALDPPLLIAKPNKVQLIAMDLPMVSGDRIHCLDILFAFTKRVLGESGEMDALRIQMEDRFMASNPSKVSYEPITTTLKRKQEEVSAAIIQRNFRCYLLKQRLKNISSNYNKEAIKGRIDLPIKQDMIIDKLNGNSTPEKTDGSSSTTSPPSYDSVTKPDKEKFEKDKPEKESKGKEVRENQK
human voltage-gated sodium channel Nav1.8 (human), sequence (Q9Y5Y9 whole entry): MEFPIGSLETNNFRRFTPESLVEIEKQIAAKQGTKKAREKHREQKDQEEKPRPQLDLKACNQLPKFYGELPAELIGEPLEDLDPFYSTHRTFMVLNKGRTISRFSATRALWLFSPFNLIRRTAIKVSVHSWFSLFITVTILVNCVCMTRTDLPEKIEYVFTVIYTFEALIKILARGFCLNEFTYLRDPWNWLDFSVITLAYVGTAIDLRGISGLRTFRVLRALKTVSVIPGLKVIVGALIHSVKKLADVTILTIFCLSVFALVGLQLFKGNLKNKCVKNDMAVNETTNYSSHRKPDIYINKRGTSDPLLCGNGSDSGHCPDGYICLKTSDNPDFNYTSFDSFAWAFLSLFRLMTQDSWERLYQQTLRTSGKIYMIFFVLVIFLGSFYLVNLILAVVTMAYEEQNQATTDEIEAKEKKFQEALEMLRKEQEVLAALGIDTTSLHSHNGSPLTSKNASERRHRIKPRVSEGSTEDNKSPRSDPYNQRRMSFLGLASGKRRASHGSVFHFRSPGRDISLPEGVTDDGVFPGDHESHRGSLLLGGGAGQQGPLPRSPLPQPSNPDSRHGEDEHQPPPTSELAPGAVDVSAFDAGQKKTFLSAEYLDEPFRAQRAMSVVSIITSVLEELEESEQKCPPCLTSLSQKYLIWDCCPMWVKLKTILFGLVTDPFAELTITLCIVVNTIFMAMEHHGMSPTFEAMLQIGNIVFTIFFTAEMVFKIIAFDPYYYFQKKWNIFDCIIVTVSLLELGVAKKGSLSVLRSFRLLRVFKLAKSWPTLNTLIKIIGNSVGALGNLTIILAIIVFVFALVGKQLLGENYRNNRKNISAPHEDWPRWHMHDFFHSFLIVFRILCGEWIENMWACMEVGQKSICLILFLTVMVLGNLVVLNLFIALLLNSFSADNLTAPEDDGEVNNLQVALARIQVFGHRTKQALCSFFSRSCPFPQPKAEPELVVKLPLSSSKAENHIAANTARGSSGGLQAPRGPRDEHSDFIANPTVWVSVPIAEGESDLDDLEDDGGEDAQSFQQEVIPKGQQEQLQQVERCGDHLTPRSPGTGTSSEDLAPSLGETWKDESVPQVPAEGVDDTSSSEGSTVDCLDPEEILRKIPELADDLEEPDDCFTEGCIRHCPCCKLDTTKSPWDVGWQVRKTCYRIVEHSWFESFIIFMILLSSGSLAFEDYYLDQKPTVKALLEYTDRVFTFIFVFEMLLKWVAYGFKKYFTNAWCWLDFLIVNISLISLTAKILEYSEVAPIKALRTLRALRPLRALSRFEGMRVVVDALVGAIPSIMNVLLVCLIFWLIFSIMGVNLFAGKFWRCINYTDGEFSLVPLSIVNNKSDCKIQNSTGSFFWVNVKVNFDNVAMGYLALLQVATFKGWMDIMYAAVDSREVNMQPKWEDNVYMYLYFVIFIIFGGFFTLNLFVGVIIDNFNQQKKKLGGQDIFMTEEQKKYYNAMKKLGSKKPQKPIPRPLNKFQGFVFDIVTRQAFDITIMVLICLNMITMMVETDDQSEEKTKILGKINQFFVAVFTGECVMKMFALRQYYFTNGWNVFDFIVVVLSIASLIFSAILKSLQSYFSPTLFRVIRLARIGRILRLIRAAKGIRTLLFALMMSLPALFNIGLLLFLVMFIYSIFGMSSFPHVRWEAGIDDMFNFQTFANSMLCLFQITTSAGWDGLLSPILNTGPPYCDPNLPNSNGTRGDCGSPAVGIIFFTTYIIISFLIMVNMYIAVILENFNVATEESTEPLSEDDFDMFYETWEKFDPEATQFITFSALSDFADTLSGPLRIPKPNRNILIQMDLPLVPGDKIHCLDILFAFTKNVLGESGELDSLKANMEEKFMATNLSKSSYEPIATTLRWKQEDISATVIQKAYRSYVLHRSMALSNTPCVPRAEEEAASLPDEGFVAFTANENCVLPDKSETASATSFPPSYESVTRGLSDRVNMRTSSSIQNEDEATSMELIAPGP

[Nva20]JzTx-V(1-29) (peptide)
IC50 (IonWorks Quattro) [1]: > 5000 nM
IC50 (IonWorks Quattro) [2]: 3100 nM
Nav1.4/Nav1.7 (ratio of IC50s) [2]: 19
IC50 (IonWorks Quattro) [3]: 10400 nM
IC50 (IonWorks Quattro) [4]: 170 nM

CyA-[Nle6,Lys(Pra)14,Glu28]JzTx-V(1-29) (peptide)
fold loss of potency against JzTx-V on TTX-sensitive current, mouse DRG neurons [5]: 3 fold

[Nle6]JzTx-V(1-29) (peptide)
PX hNav1.7 Tonic IC50 [4]: 0.586 nM
IC50 (IonWorks Quattro) [6]: > 5000 nM
IC50 (IonWorks Quattro) [7]: > 5000 nM
IC50 (IonWorks Quattro) [8]: > 5000 nM
IC50 (IonWorks Quattro) [9]: > 5000 nM

[Cit20]JzTx-V(1-29) (peptide)
IC50 (IonWorks Quattro) [1]: 350 nM
IC50 (IonWorks Quattro) [2]: 500 nM
Nav1.4/Nav1.7 (ratio of IC50s) [2]: 15
IC50 (IonWorks Quattro) [3]: 6800 nM
IC50 (IonWorks Quattro) [4]: 40 nM

JzTx-V(1-29) (peptide)
Mean IC50, fully non-inactivated (WCPC) [10]: > 1000 nM
Mean IC50, partially inactivated (WCPC) [10]: > 1000 nM
1.x/1.7, fully non-inactivated [11]: 530 fold
1.x/1.7, partially inactivated [11]: 111 fold
Mean IC50, fully non-inactivated (WCPC) [11]: 75 nM
Mean IC50, partially inactivated (WCPC) [11]: 18 nM
PX hNav1.4 Tonic IC50 [2]: 3 nM and 2 nM
average IC50 against hNav1.4, PX assay format [2]: 2 nM
1.x/1.7, fully non-inactivated [3]: 6230 fold
1.x/1.7, partially inactivated [3]: 2640 fold
IC50 (IonWorks Quattro) [3]: 7200 nM
Mean IC50, fully non-inactivated (WCPC) [3]: 882 nM
Mean IC50, partially inactivated (WCPC) [3]: 426 nM
PX hNav1.5 Tonic IC50 [3]: 2210 nM and 3250 nM and 1600 nM
IC50 (IonWorks Quattro) [4]: 20 nM
Mean IC50, fully non-inactivated (WCPC) [4]: 0.141 nM
Mean IC50, partially inactivated (WCPC) [4]: 0.162 nM
1.x/1.7, fully non-inactivated [12]: 5720 fold
1.x/1.7, partially inactivated [12]: 3280 fold
Mean IC50, fully non-inactivated (WCPC) [12]: 810 nM
Mean IC50, partially inactivated (WCPC) [12]: 530 nM
IC50 (IonWorks Quattro) [7]: 200 nM
IC50 (IonWorks Quattro) [8]: > 7000 nM
IC50 (IonWorks Quattro) [9]: 40 nM

[1-Nal7]JzTx-V(1-29) (peptide)
PX hNav1.4 Tonic IC50 [2]: 0.9 nM
PX hNav1.5 Tonic IC50 [3]: 1420 nM
PX hNav1.7 Tonic IC50 [4]: 0.4 nM

Pra-[Nle6]JzTx-V(1-29) (peptide)
fold potency over JzTx-V on TTX-sensitive current, mouse DRG neurons [5]: 3 fold
fold improvement in hNav1.7 potency over wild type JzTx-V, WCPC [4]: 190 fold
fold potency against hNav1.7 over wild type JzTx-V(1-29), WCPC [4]: 200 fold

JzTx-45 (peptide)
PX hNav1.4 Tonic IC50 [2]: 321 nM
PX hNav1.5 Tonic IC50 [3]: 7460 nM
PX hNav1.7 Tonic IC50 [4]: 122 nM

Atz(PEG11-benzylthioacetamide)-[Nle6]JzTx-V(1-29) (peptide)
Nav1.4/Nav1.7 [2]: 9 fold
PX hNav1.4 Tonic IC50 [2]: 13 nM
Nav1.5/Nav1.7 [3]: 1420 fold
PX hNav1.5 Tonic IC50 [3]: 1980 nM
PX hNav1.7 Tonic IC50 [4]: 1.4 nM

[Abu20]JzTx-V(1-29) (peptide)
IC50 (IonWorks Quattro) [1]: 970 nM
IC50 (IonWorks Quattro) [2]: 900 nM
Nav1.4/Nav1.7 (ratio of IC50s) [2]: 19
IC50 (IonWorks Quattro) [3]: 10600 nM
IC50 (IonWorks Quattro) [4]: 50 nM

[Cpa20]JzTx-V(1-29) (peptide)
IC50 (IonWorks Quattro) [1]: > 5000 nM
IC50 (IonWorks Quattro) [2]: > 5000 nM
Nav1.4/Nav1.7 (ratio of IC50s) [2]: 24
IC50 (IonWorks Quattro) [3]: 14200 nM
IC50 (IonWorks Quattro) [4]: 210 nM

GpTx-1 (peptide)
Nav1.7 whole cell patch clamp [WCPC] IC50 [4]: 3 nM

Bis-{Atz(PEG23*)-[Nle6]JzTx-V(1-29)}-5-((2-(benzylthio)acetamido)methyl)isophthalamide (peptide)
Nav1.4/Nav1.7 [2]: 5 fold and 3 fold
PX hNav1.5 Tonic IC50 [3]: 720 nM and 1180 nM

Atz(NPEG10)-[Nle6]JzTx-V(1-29) (peptide)
Nav1.4/Nav1.7 [2]: 1 fold
PX hNav1.4 Tonic IC50 [2]: 8 nM
Nav1.5/Nav1.7 [3]: 629 fold
PX hNav1.5 Tonic IC50 [3]: 3770 nM
PX hNav1.7 Tonic IC50 [4]: 6 nM

[Phe6,Atz(2 kDa EtO-PEG*-{[Phe6,Atz13*]GpTx-1(1-34)})13]GpTx-1(1-34) (peptide)
Nav1.7 WCPC IC50 [4]: 0.58 nM

YCQKWMWTCDSKRACCEGLRCKLWCRKII [JzTx-V(1-29)]
IC50 [13]: 630 nM and 430 nM
